T1: 5-TAMRA-MpTPpYV-NH2 substrate peptide (bis-phosphorylated)
T1 chain: MTPYV


Tests used:
[1] = molecular target: 5-TAMRA-MpTPpYV-NH2 substrate peptide (bis-phosphorylated); experiment: cell-based or functional assay
[2] = molecular target: T1, 5-TAMRA-MpTPpYV-NH2 substrate peptide …
[3] = molecular target: CaMKII alpha isoform (about 50 kDa), phosphorylated at Thr286
[4] = molecular target: CaMKII beta isoform (about 57 kDa), phosphorylated at Thr286

Binder | IC50 (EC50) of the PPM1E titration, decrease of polarization [1] [nM] | polarization at a concentration of PPM1E of 33 nM [2] | polarization at a concentration of PPM1E of 0.8 µM [2] | dephosphorylation of pCaMKII alpha band (western blot) [3] | phosphorylation of CaMKII relative to wildtype HC neurons (western blot) [3] | dephosphorylation of pCaMKII beta band (western blot) [4] | phosphorylation of CaMKII relative to wildtype HC neurons (western blot) [4]
His-PPM1E (PPM1E phosphatase with an N-terminal His-tag, expressed in Sf9 cells) (protein) MAGCIPEEKTYRRFLELFLGEFRGPCGGGEPEPEPEPEPEPEPESEPEPEPELVEAEAAEASVEEPGEEAATVAATEEGDQEQDPEPEEEAAVEGEEEEEGAATAAAAPGHSAVPPPPPQLPPLPPLPRPLSERITREEVEGESLDLCLQQLYKYNCPSFLAAALARATSDEVLQSDLSAHYIPKETDGTEGTVEIETVKLARSVFSKLHEICCSWVKDFPLRRRPQLYYETSIHAIKNMRRKMEDKHVCIPDFNMLFNLEDQEEQAYFAVFDGHGGVDAAIYASIHLHVNLVRQEMFPHDPAEALCRAFRVTDERFVQKAARESLRCGTTGVVTFIRGNMLHVAWVGDSQVMLVRKGQAVELMKPHKPDREDEKQRIEALGGCVVWFGAWRVNGSLSVSRAIGDAEHKPYICGDADSASTVLDGTEDYLILACDGFYDTVNPDEAVKVVSDHLKENNGDSSMVAHKLVASARDAGSSDNITVIVVFLRDMNKAVNVSEESDWTENSFQGGQEDGGDDKENHGECKRPWPQHQCSAPADLGYDGRVDSFTDRTSLSPGSQINVLEDPGYLDLTQIEASKPHSAQFLLPVEMFGPGAPKKANLINELMMEKKSVQSSLPEWSGAGEFPTAFNLGSTGEQIYRMQSLSPVCSGLENEQFKSPGNRVSRLSHLRHHYSKKWHRFRFNPKFYSFLSAQEPSHKIGTSLSSLTGSGKRNRIRSSLPWRQNSWKGYSENMRKLRKTHDIPCPDLPWSYKIE | 160 | a polarization of about 147 mP (milli-Polarization) was measured | the polarization decreased to about 123 mP |  |  |  | 
Full length PPM1E (SEQ ID NO: 1) overexpressed in H4 neuroglioma cells and rat hippocampal primary neurons (protein) MAGCIPEEKTYRRFLELFLGEFRGPCGGGEPEPEPEPEPEPEPESEPEPEPELVEAEAAEASVEEPGEEAATVAATEEGDQEQDPEPEEEAAVEGEEEEEGAATAAAAPGHSAVPPPPPQLPPLPPLPRPLSERITREEVEGESLDLCLQQLYKYNCPSFLAAALARATSDEVLQSDLSAHYIPKETDGTEGTVEIETVKLARSVFSKLHEICCSWVKDFPLRRRPQLYYETSIHAIKNMRRKMEDKHVCIPDFNMLFNLEDQEEQAYFAVFDGHGGVDAAIYASIHLHVNLVRQEMFPHDPAEALCRAFRVTDERFVQKAARESLRCGTTGVVTFIRGNMLHVAWVGDSQVMLVRKGQAVELMKPHKPDREDEKQRIEALGGCVVWFGAWRVNGSLSVSRAIGDAEHKPYICGDADSASTVLDGTEDYLILACDGFYDTVNPDEAVKVVSDHLKENNGDSSMVAHKLVASARDAGSSDNITVIVVFLRDMNKAVNVSEESDWTENSFQGGQEDGGDDKENHGECKRPWPQHQCSAPADLGYDGRVDSFTDRTSLSPGSQINVLEDPGYLDLTQIEASKPHSAQFLLPVEMFGPGAPKKANLINELMMEKKSVQSSLPEWSGAGEFPTAFNLGSTGEQIYRMQSLSPVCSGLENEQFKSPGNRVSRLSHLRHHYSKKWHRFRFNPKFYSFLSAQEPSHKIGTSLSSLTGSGKRNRIRSSLPWRQNSWKGYSENMRKLRKTHDIPCPDLPWSYKIE |  |  |  | PPM1E phosphatase is dephosphorylating the beta isoform (57 kDa) as well as the alpha isoform (50 kDa) of CaMKII | the phosphorylation of CaMKII is decreasing to 50% of the phosphorylation status of wildtype cells by increasing the level of PPM1E expression 12 times | PPM1E phosphatase is dephosphorylating the beta isoform (57 kDa) as well as the alpha isoform (50 kDa) of CaMKII | the phosphorylation of CaMKII is decreasing to 50% of the phosphorylation status of wildtype cells by increasing the level of PPM1E expression 12 times

From patent US20100261182A1
